A word on the Kd: it is the concentration at which binding is half-saturated. Higher therefore signals lower affinity.

The record followed here is patent publication US20240294594A1.

Experiment [1] has as its target FcγRIIIa V158 (human) (UniProt P08637). Kind of experiment: SPR (Biacore 8K), ratio of 1/Kd values.
Experiment [2] has as its target FcγRIIIa F158 (human) (UniProt P08637). In words: SPR (Biacore 8K), ratio of 1/Kd values. (In general: SPR reads the build-up and loss of mass on a sensor chip optically.)
Experiment [3] addresses FcγRIIIa V158 (human) (UniProt P08637). Kind of experiment: SPR (Biacore 8K), receptor captured via anti-His antibody.
In experiment [4] the target is FcγRIIb (UniProt P31994). The description is as above.
Chain of FcγRIIb (P31994 46-217 limits assumed): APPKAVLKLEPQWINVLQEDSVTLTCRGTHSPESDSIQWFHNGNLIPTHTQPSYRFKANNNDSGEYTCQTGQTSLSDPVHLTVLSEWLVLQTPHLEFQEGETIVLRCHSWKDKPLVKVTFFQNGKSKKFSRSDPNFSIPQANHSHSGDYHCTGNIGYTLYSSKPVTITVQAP
The target of experiment [5] is FcγRIIIa F158 (human) (UniProt P08637). The description is as above.
Chain of FcγRIIIa F158 (human) (P08637 17-208 limits assumed): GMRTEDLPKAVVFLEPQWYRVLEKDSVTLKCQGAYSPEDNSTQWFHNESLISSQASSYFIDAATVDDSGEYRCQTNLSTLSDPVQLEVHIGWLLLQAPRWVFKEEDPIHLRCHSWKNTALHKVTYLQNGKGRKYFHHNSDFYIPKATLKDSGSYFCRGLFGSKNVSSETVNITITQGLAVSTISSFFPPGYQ

Chain of FcγRIIIa V158 (human) (P08637 17-208 F176V limits assumed): as the sequence (P08637 17-208 limits assumed) above, with F160V counted along it

For the substance Zolbetuximab (antibody), the A/I (V158), affinity towards FcγRIIIa over affinity towards FcγRIIb in experiment [1] is 161. The A/I (F158), affinity towards FcγRIIIa over affinity towards FcγRIIb in experiment [2] is 32.9. The figures for the Kd in experiment [3], in experiment [4] and in experiment [5] were 86.4 nM, 13900 nM and 423 nM, respectively.
